Test results as given in paper PMC8298490, “Structure and function of an Arabidopsis thaliana sulfate transporter” (Nature Communications, 2021).
Changes are numbered by the printed parent chain. In names and notes the source's numbering stands.

B1: Arabidopsis thaliana sulfate transporter SULTR4;1 (AtSULTR4;1), wild type (natural protein, UniProt Q9FY46 24-685, looked up)
chain: SSLKPPGQTRPVKVIPLQHPDTSNEARPPSIPFDDIFSGWTAKIKRMRLVDWIDTLFPCFRWIRTYRWSEYFKLDLMAGITVGIMLVPQAMSYAKLAGLPPIYGLYSSFVPVFVYAIFGSSRQLAIGPVALVSLLVSNALGGIADTNEELHIELAILLALLVGILECIMGLLRLGWLIRFISHSVISGFTSASAIVIGLSQIKYFLGYSIARSSKIVPIVESIIAGADKFQWPPFVMGSLILVILQVMKHVGKAKKELQFLRAAAPLTGIVLGTTIAKVFHPPSISLVGEIPQGLPTFSFPRSFDHAKTLLPTSALITGVAILESVGIAKALAAKNRYELDSNSELFGLGVANILGSLFSAYPATGSFSRSAVNNESEAKTGLSGLITGIIIGCSLLFLTPMFKYIPQCALAAIVISAVSGLVDYDEAIFLWRVDKRDFSLWTITSTITLFFGIEIGVLVGVGFSLAFVIHESANPHIAVLGRLPGTTVYRNIKQYPEAYTYNGIVIVRIDSPIYFANISYIKDRLREYEVAVDKYTNRGLEVDRINFVILEMSPVTHIDSSAVEALKELYQEYKTRDIQLAISNPNKDVHLTIARSGMVELVGKEWFFVRVHDAVQVCLQYVQSSNLEDKHLSFTRRYGGSNNNSSSSNALLKEPLLSVEK
notes: A. thaliana SULTR4;1, codon-optimized gene (NCBI NM_121358.3); residues 1-69 and 645-685 are called the N- and C-termini and were not resolved; the model holds residues 70-644; Homodimer in the cryo-EM structure; also called WT; source: High Five (Trichoplusia ni) insect cells, baculovirus; purified (LMNG solubilisation, Talon cobalt resin, SEC); not shown: His6, C-terminal, cleaved
B2: AtSULTR4;1 K353E (natural protein, Arabidopsis thaliana, UniProt Q9FY46 24-685, looked up)
chain: B1 chain with K330E
notes: A. thaliana SULTR4;1 (NCBI NM_121358.3) with the charge-reversal mutation K353E on TM8 (core domain); Made by QuikChange on the wild-type construct; source: High Five insect cells, baculovirus; purified following the same protocol as wild type; not shown: His6, C-terminal, cleaved
B3: AtSULTR4;1 D547R (natural protein, Arabidopsis thaliana, UniProt Q9FY46 24-685, looked up)
chain: B1 chain with D524R
notes: A. thaliana SULTR4;1 (NCBI NM_121358.3) with the charge-reversal mutation D547R on helix alpha1 of the STAS domain; Made by QuikChange on the wild-type construct; source: High Five insect cells, baculovirus; purified following the same protocol as wild type; not shown: His6, C-terminal, cleaved
B4: AtSULTR4;1 R550E (natural protein, Arabidopsis thaliana, UniProt Q9FY46 24-685, looked up)
chain: B1 chain with R527E
notes: A. thaliana SULTR4;1 (NCBI NM_121358.3) with the charge-reversal mutation R550E on helix alpha1 of the STAS domain; Made by QuikChange on the wild-type construct; source: High Five insect cells, baculovirus; purified following the same protocol as wild type; not shown: His6, C-terminal, cleaved

Tests used:
AtSULTR4;1 ΔSTAS = target: T1, AtSULTR4;1 ΔSTAS (Arabidopsis thaliana, UniProt Q9FY46); experiment: […]SO4 uptake into proteoliposomes, […] min; assay type: biochemical; conditions: 13.3 µM 35SO4, pH 7.5 inside / 5.5 outside; labelled compound
T1 construct: gene SULTR4; STAS domain (residues 503-685) truncated, transmembrane domain only, C-terminal His6-tag cleaved by TEV, High Five insect cells, monomeric by SEC
T1 sequence (Q9FY46 1-502): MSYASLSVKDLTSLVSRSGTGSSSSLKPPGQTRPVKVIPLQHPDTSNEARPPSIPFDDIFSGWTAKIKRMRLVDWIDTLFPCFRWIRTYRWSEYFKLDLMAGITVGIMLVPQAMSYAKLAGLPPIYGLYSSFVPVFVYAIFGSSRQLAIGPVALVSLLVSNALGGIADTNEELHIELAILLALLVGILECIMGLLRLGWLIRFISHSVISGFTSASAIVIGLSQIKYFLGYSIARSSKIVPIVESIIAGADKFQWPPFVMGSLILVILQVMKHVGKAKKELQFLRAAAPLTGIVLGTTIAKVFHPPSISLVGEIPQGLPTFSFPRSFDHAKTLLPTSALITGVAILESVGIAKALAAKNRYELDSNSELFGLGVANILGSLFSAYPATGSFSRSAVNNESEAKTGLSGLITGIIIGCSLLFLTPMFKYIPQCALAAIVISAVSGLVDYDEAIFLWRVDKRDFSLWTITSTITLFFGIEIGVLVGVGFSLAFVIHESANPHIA

[1] = target: the molecule itself; experiment: cryo-EM structure; AtSULTR4;1 in GDN, 20 mM MES pH 6.0, 150 mM Na2SO4, 5 mM BME; refined with C2 symmetry; overall resolution 2.8 Å
[2] = target: the molecule itself; experiment: SEC; purified protein on SRT-3C SEC-300 column, 20 mM HEPES, 150 mM NaCl, 5 mM BME, 0.01% LMNG; elution profile compared with wild type

Molecule	binding result [2]	further results
O=S(=O)(O)O [SO4^2−]		35SO4 uptake into proteoliposomes, 5 min (AtSULTR4;1 ΔSTAS): ΔSTAS retains a lower level of transport activity
B1		stoichiometry N [1]: 2
B2	binds	
B3	binds	
B4	binds	
